Test results taken from publication PMC3326337.

Tested on: Streptavidin
Test: DRaCALA
Settings: 5'-biotin on one strand

In the case of 3x ICAP PCR probe with biotin, the Kd is reported as 400 pM.
